Residue numbers refer to the chain shown, from its start. Names may count otherwise.
B1: recombinant mature wild-type fructose-1,6-bisphosphatase 1 (cFBP1) of Arabidopsis (enzyme, Arabidopsis thaliana, UniProt P25851 60-417, looked up)
chain: AVAADAAETKTAARKKSGYELQTLTGWLLRQEMKGEIDAELTIVMSSISLACKQIASLVQRAGISNLTGVQGAVNIQGEDQKKLDVISNEVFSNCLRSSGRTGIIASEEEDVPVAVEESYSGNYVVVFDPLDGSSNIDAAVSTGSIFGIYSPNDECIVDDSDDISALGSEEQRCIVNVCQPGNNLLAAGYCMYSSSVIFVLTLGKGVFSFTLDPMYGEFVLTQENIEIPKAGRIYSFNEGNYQMWDDKLKKYIDDLKDPGPTGKPYSARYIGSLVGDFHRTLLYGGIYGYPRDAKSKNGKLRLLYECAPMSFIVEQAGGKGSDGHSRVLDIQPTEIHQRVPLYIGSTEEVEKLEKYLA
notes: Fructose-1,6-bisphosphatase 1, chloroplastic (cFBP1), Arabidopsis thaliana, gene At3g54050; ca. 40 kDa on SDS-PAGE; numbers count on: the mature protein; The number of chains depends on pH: tetramer at pH 7.0, dimer at pH 8.3, mainly dimer at pH 7.8 when fresh; Expressed from pDEST17, which to my knowledge adds an N-terminal His6; No step to cleave the tag is described; also called WT cFBP1; WT
B2: recombinant mature C95S variant of fructose-1,6-bisphosphatase 1 (cFBP1) of Arabidopsis (enzyme, Arabidopsis thaliana, UniProt P25851 60-417, looked up)
chain: B1 chain with C95S
notes: Fructose-1,6-bisphosphatase 1, chloroplastic (cFBP1), Arabidopsis thaliana, gene At3g54050; Cys95 replaced by Ser; numbers count on: the mature protein; The number of chains depends on pH: tetramer at pH 7.0, dimer at pH 8.3, mainly tetramer at pH 7.8; Expressed from pDEST17, which to my knowledge adds an N-terminal His6; No step to cleave the tag is described; also called C95S cFBP1; cFBP1 C95S

Legend:
[1] = biological target: the molecule itself; assay: SEC; Superdex 200 HR 10/30, 50 mM Tris pH 8.3/0.15 M NaCl, 0.3 mL/min; native mass against protein standards
[2] = biological target: the molecule itself; assay: SEC; Superdex 200 HR 10/30, 50 mM Tris pH 7.0/0.15 M NaCl, 0.3 mL/min; native mass against protein standards

Row | Protein | stoichiometry N [1] | stoichiometry N [2]
1 | B1 | 2 | 4
2 | B2 | 2 | 4
